Data set [1] in a line: purified protein yield per well (BCA); higher = higher soluble expression. An outline of the steps:
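Values under 25 ug (0.1 mg/mL) are below the detection threshold. Purified protein yield per well was quantified with the Pierce Rapid Gold BCA kit after candidate enzymes, expressed in E. coli C41(DE3), were captured on Ni-charged magnetic beads and released by SUMO protease on an OT-2 robot. Cultures were 2 mL autoinduction with 100 µg/mL kanamycin, run 2 h at 37 °C and then 40 h at 18 °C.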

A short description of data set [2]: PET hydrolysis, aromatic products released after 48 h (umol product/mg enzyme); higher = more PET depolymerization activity. Particulars: substrate: cryPow. The procedure:
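HTP-purified, SUMO-cleaved, tagless PET hydrolase candidates (5 ug, 1.43 mg/g PET) were incubated 48 h without shaking with 3.5 mg amorphous PET film (aFilm) or crystalline PET powder (cryPow) in 0.5 mL buffer: NaCitrate pH 4.5/5.5, NaPhosphate pH 6.5/7.5, glycine pH 8.5. Incubation was at 40 or 60 C. Aromatic products (TPA, MHET, BHET) in the supernatant were quantified by UV absorbance at 260/280 nm relative to buffer blanks and expressed per mg enzyme. LCC-ICCG was the positive control on every plate.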

Regarding “GESPGAAVVAFAGHAKGPAPTEQSVRAQQGPFTTDKLVVPAQAGRGFNKGTIYYPDDTSQGTFGAVAVIPGFLEGESAISWLGPTLASHGFITLTLAPNATTDYPEPRSNQLLAAVDWLANQSPVKDRVDPNRLAVAGHSMGGGGTLIAASKNPALKAAVPLTPWNPHSNFSDVTVPTLIIGADRDFIAPTFMHASPMYNSLKAKQDQAYLKLKNADHFATNRYNATATAYTVSWLKRYVDEDTRYSQFLCPVKSGFQLTCPI [DP011]”, the “purified protein yield per well” value in data set [1] came to 26 µg. In addition, the PET hydrolysis in data set [2] (40 °C, pH 5.5) is under 3; in data set [2] (40 °C, pH 6.5) it was under 3; in data set [2] (40 °C, pH 7.5), under 3; in data set [2] (40 °C, pH 8.5), under 3.

Consider “QSNPYERGPAPTESSIEATRGSFSVSDKNVSSFSASGFGGGTIYYPTDTSQGTFGGVAISPGFTAGESSIAWLGPRIASQGFVVITIDTNSRYDQPNSRADQLQAALDHIVADSTVGSRIDPNRLAVMGHSMGGGGSLKAAEDNADLQAAVPLQPWHTQKNWSDVEVPTLIIGAENDSVASVTTHSKPFYTSLPDDLDKAYLELDGASHFVSNTPDTTTAKYSISWLKRFVDDDTRYEQFLCPAPDDRTISEYRDTCPHSGGGGTTPTTTPTTLPPDDDCAWWQWWC [DP057]”, for which, in data set [1], the “purified protein yield per well” value is 34 µg. Also, the PET hydrolysis in data set [2] (40 °C, pH 5.5) was under 3; in data set [2] (40 °C, pH 6.5), 10; in data set [2] (40 °C, pH 7.5), 29; in data set [2] (40 °C, pH 8.5) it was 31.

Consider “AETTTQHGPDPTEGSITAPTGPFQTDQKTVPRSSVQGFGGGTIYYPTETSQGTFGAVTIAPGYTAGKESLAWLGPRLASQGFVVFTIDTITTSDQPDSRAKQLMASLDYLTGDSDVRDRIDTSRLAVMGHSMGGGGTLEAARDNRNLKAAIPMTPWDTTKDFSGVQTPTLIIGAQNDTIAPVAQHAKPFYGSLPDDPGKAYLELAGASHFAPNQDNTTIAKSSIAWLKRFVDDDTRYDQFLCPPPQDAEISDYQSTCPY [TEP037]”, for which the “purified protein yield per well” value in data set [1] is 77 µg. The PET hydrolysis in data set [2] (40 °C, pH 4.5) is under 3; in data set [2] (40 °C, pH 5.5), 5; in data set [2] (40 °C, pH 6.5), under 3; in data set [2] (40 °C, pH 7.5) it was under 3; in data set [2] (60 °C, pH 4.5), under 3; in data set [2] (60 °C, pH 5.5) it was under 3. For the same sequence, the PET hydrolysis in data set [2] (60 °C, pH 6.5) was under 3; in data set [2] (60 °C, pH 7.5) it was under 3.

For “ADNPYERGPAPTNASIEAVRGPYAVSQATVSSLAVTGFGGGTIYYPTTTSDGTFGAVAISPGYTGTQSSIAWLGPRLASQGFVVFTIDTNTTLDQPDSRGRQLLAALDYLTRVSPLRTRVDSTRLGVMGHSMGGGGSLEAAKSRPSLQAAIPLTPWNLDKTWPEIQTPTLIVGADGDSIAPVSSHAEPFYENLPSSLDRAYLELNGASHFAPNSSNTTIAKYSISWLKRFIDNDTRYEQFLCPLPRPSLTIEEYRGNCPHQS [TEP188]”, the “purified protein yield per well” value in data set [1] came to 72.2 µg. The PET hydrolysis in data set [2] (40 °C, pH 4.5) is under 3; in data set [2] (40 °C, pH 5.5) it was under 3; in data set [2] (40 °C, pH 6.5), under 3; in data set [2] (40 °C, pH 7.5) it was under 3; in data set [2] (60 °C, pH 4.5) it was under 3; in data set [2] (60 °C, pH 5.5) it was under 3. For the same sequence, the PET hydrolysis in data set [2] (60 °C, pH 6.5) was under 3; in data set [2] (60 °C, pH 7.5) it was under 3.

“QTPQAPTAASLNATSGPLSVSTQSVSSLSARGFGGGTVYYPTTAGRYGAVAISPGFTATQSSVAWLGRRLASHGLVVITINTNSTLDQPASRATQLMAALTYVTSASGTTVQSRVDPQRLAVAGHSMGGGGALIAARDNPTLKASLPLTPWNTTTNFSGIRVPTLIVGADGDTVASVTAHARPFYASLPSNTFKAYAELNSASHFTPNSANTPIGRYGVTWLKRFVDNDSRYSPFLCGAEHQAYATAQVFDRYQQNCPY [ESM188]”: the “purified protein yield per well” value in data set [1] was under 25 µg.

Consider “ADPGTGGGNGGGNTCQEDCGFERGPDPSVSMLEARNGPFSVRTSRVSGLVSGFGGGTIHYPTGQSGTMGAIVVIPGFVSAESSIDWWGSQLASHGFVVMTIDTNTGFDQPPSRARQINAALDYLVDQNRASGSPVNGMIDTSRLGVIGWSMGGGGTLRVATEGRIKAAIPLAPWDTSSRQFRSVQAPTLIFACGSDLIAPVRSHASPFYNALPNGLDKAYFEISRGSHYCANGGNTNNSRLSRLGVSWMKLHLDQDQRYNQFICGPRHESDRSISEYRGNC [ESM181]”, for which the “purified protein yield per well” value in data set [1] was under 25 µg.

In the case of “DENPLERGPDPTESFIEQRRGNYDVAQRSINRMGSDGFRNGTIYYPTDSSDGQFGVIAISPGYTAGESSIAWLGARMASFGFVVVTINTTTRYDQPRQRSTQLLAALDHAMEDSVVGPMIDPERQAVMGHSMGGGGALQAAESRPEIDAVIPLTPWNLKRNWRNIDAATLIIGAERDTIASVRTHSIPFYESLTGADQRGYLELRGASHFAPNFSNTTIAKYSVAWMKRHLDDDERYEKFLTPGPTVGYSSGVSDYRLQ [DP097]”, in data set [1], the “purified protein yield per well” value is under 25 µg.

As for “YQRGPDPTRSALTADGPFSVTTYTVSRYAVTGFGGGVIYYPTGTSLTFGGIAVSPGYTADASSLAWFGRRLASHGFVVLVINTNSRFDFPDSRASQLAAALDYLVSRSPSAVRARLDTSRLAVAGHSMGGGATLRISENRPSLKAAVPLTPWHTDKTFNTAVPQLIIGAENDTVAPVSDHAIPFYQNLPSTTPKVYLELNNASHF [TEP127]”, the “purified protein yield per well” value in data set [1] was under 25 µg.

In the case of “CAAQAQTSPPTSASLNATAGPLSVSTSSVSSWAARGFGGGTIYYPNATGRYGVVAISPGYTARQSSIAWLGRRLATHGFVVITIDTNSTLDQPPSRATQLMAALNHVVNNANATVRSRVDASKLAVAGHSMGGGGSLIAAENNPSLKAAYPLTPWSVSKNYSSVRVPTMIIGADGDSIASVSTHSRLFYNSLSSNVSKAYGELNNASHFTPNYTNTPIGRYAVTWMKRFVDNDTRYSPFLCGAPHDSYATRTVFDRYEDNCAY [ESM071]”, the “purified protein yield per well” value in data set [1] was under 25 µg.

In the case of “EENPYARGPAPTNASIEADRGSFQTATEKVPAGQGFGGGTIHYPTDTGQGTFGAIAIAPGFFETESAIAWYGPRLASQGFVVITFSTKSTWDTPDLRSDQLLAALRYVTDKSQAKDRVDPGRLAVMGHSMGGGGSLIAAQKAPTLKAAIPLTGWNPNTVFSDLKVPTFVVSAQNDFIAPDGSHSRPFYQSLPESLDKAYLLLAGAGHMAPTKPNVTIAKYSLSWLKRFVDEDTRYDQFLCPLPANDPKIAVYRGTCPLG [TEP064]”, the “purified protein yield per well” value in data set [1] is under 25 µg.

Consider “QARDVTAGNPYQRGPDPTVAMIEARTGPFATASASVPAGYGFNGGMVYYPTDTSLGTWGALAIVPGYSALFANEEAWMGPWLASFGFVVIGVETTTRTDSADARGTELLSALNYLTTQSPVRDRVDPNRLSVLGHSAGGAGAMLAAQRQPTLKAAVGLAPGSPVGNLSLATDTVPTMVIGGQNDSVVTPSYLSGLYATMPASTQSAFAQIAGADHVYYTRPNNVETKLLIPWLKTFLDNDTRYVPFLCPAPPDPSSLSMYVPKCPYVPGGSGPGGGGNTGALHAVGAAKCLAAPSSGTPGTQLTIGTCDGQARQTWTRTATDQLTVTTAGATLCLDASGQGGSPGTKAIVWSCNGQANQHWNVNSNGTVTSAQSGLCLDVTGGSTAEGAPVELWTCNGGGNQQWHLG [TEP085]”, for which the “purified protein yield per well” value in data set [1] was under 25 µg.

The values are drawn from the supplement of paper PMC12455559.
